Data taken from PMC4231364, “Functional characterization and structural modeling of synthetic polyester-degrading hydrolases from Thermomonospora curvata” (AMB Express, 2014).

Tests used:
[1] = substrate: CCCC(=O)Oc1ccc([N+](=O)[O-])cc1; assay: esterase assay in microplate, Michaelis-Menten kinetics; assay type: biochemical, Thermomonospora curvata; details: 25°C, pH 8.5
From the text: esterase assay in microplate, Michaelis-Menten kinetics on Tcur1278

[2] = substrate: CCCC(=O)Oc1ccc([N+](=O)[O-])cc1; assay: as above; assay type: biochemical, Thermomonospora curvata; details: 25°C, pH 8.5; remark: listed apart in the source
From the text: esterase assay in microplate, Michaelis-Menten kinetics on Tcur0390

Protein | Km [1] [µM] | kcat [1] [s⁻¹] | Km [2] [µM] | kcat [2] [s⁻¹]
Tcur1278 (Thermomonospora curvata DSM 43183) (protein, mature protein without signal peptide, C-terminal His-tag, codon-optimised synthetic gene, pBAD TOPO, E. coli TOP10, IMAC purified, approx. 35 kDa) ANPYQRGPDPTESLLRAARGPFAVSEQSVSRLSVSGFGGGRIYYPTTTSQGTFGAIAISPGFTASWSSLAWLGPRLASHGFVVIGIETNTRLDQPDSRGRQLLAALDYLTQRSSVRNRVDASRLAVAGHSMGGGGTLEAAKSRTSLKAAIPIAPWNLDKTWPEVRTPTLIIGGELDSIAPVATHSIPFYNSLTNAREKAYLELNNASHFFPQFSNDTMAKFMISWMKRFIDDDTRYDQFLCPPPRAIGDISDYRDTCPHT | 88.8 ± 12.8 | 2.3 ± 0.1 |  | 
Tcur0390 (Thermomonospora curvata DSM 43183) (protein, mature protein without signal peptide, C-terminal His-tag, codon-optimised synthetic gene, pBAD TOPO, E. coli TOP10, IMAC purified, approx. 35 kDa) ANPYQRGPNPTEASITAARGPFNTAEITVSRLSVSGFGGGKIYYPTTTSEGTFGAIAISPGFTAYWSSLEWLGHRLASQGFVVIGIETNTTLDQPDQRGQQLLAALDYLTQRSAVRDRVDASRLAVAGHSMGGGGSLEAAKARTSLKAAIPLAPWNLDKTWPEVRTPTLIIGGELDAVAPVATHSIPFYNSLSNAPEKAYLELDNASHFFPNITNTQMAKYMIAWMKRFIDDDTRYTQFLCPPPSTGLLSDFSDARFTCPM |  |  | 83.1 ± 11.1 | 12.4 ± 0.4
